In test [1] the target is T1, human interferon gamma (hIFNγ) (human, UniProt P01579 24-166, limits assumed).
T1 construct: also called INFγ
T1 sequence (looked up): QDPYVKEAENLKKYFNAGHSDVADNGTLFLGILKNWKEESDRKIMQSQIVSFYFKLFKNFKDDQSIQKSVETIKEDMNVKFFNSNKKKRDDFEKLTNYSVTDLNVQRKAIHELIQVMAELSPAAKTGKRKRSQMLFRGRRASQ
The experiment in a line: SPR (Biacore), INFγ immobilised, IgG injected. How it is done: (§1) FIGS. 12A and 12B are a series of illustrations and graphs depicting SPR analysis of IgGκλ bispecific antibodies. In FIG. 12A, INFγ was immobilized at the surface of the Biacore chip and anti-IL6RC monospecific antibody ([…]), anti-INFγ monospecific antibody (IgGλ) and, anti-IL6RC/anti-INFγ bispecific antibody (IgGκλ) were injected on the surface followed by injection of IL6RC. In FIG. 12B, the anti-IL6RC/anti-INFγ bispecific antibody (IgGκλ) was immobilized on the chip surface and anti human-Kappa and anti-human Lambda antibodies were injected at the same concentration. The experiment was repeated inverting the order of antibody injection with identical results.
(§2) The capacity of the bispecific IgGκλ to interact with both targets simultaneously was tested by SPR. Biotinylated INFγ was immobilized on streptavidin coating CM5 Biacore chip. The monospecific and the bispecific antibodies were injected on this surface followed by injection of IL6RC. […] SPR was also used to assess the relative amounts of Kappa and Lambda light chains in the purified bispecific antibody. IgGκλ was directly immobilized via amine coupling on the surface of a CM5 Biacore chip and an anti-human CKappa antibody was injected followed by an anti-human CLambda antibody at the same concentration.

Test [2] concerns the target T2, hIL6 Receptor Complex (IL-6/IL-6R receptor complex) (human, UniProt P08887 20-358; P05231 30-212, limits assumed).
T2 construct: also called IL6RC; hIL6RC
Kind of test: SPR (Biacore), INFγ immobilised, IgGλ injected, then IL6RC injected. The protocol: as §1, §2

The target of test [3] is T1, human interferon gamma (hIFNγ). Kind of test: SPR, Biacore 2000, IgG captured on anti-human IgG, antigen as analyte, 1:1 Langmuir fit. The protocol: The affinity and binding kinetics of monospecific anti-INFγ IgGλ, the anti-IL6RC IgGκ and the bispecific IgGκλ antibodies were characterized on a Biacore 2000 instrument (Biacore AB, Uppsala, Sweden). 200RU of a goat anti-human polyclonal IgG (ahIgG; Biacore) were immobilized by EDC/NHS chemistry on a CM5 Biacore chip. This surface was used to capture monospecific or bispecific human IgG. The surface was regenerated after each cycle by injection of 10 mM glycine pH=1.5 at 30 μL/min, for 30 s followed by 1 min of stabilization time in HBS-EP buffer. […] Similar affinity values were obtained for the monospecific antibodies and the bispecific IgGκλ antibodies.

B1: monospecific anti-IL6RC IgGκ antibody (antibody, V domains shown)
VH: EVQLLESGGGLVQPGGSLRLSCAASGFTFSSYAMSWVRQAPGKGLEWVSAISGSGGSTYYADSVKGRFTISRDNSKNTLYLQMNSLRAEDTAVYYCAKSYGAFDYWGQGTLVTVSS
VL: EIVLTQSPATLSLSPGERATLSCRASQSVSSYLAWYQQKPGQAPRLLIYDASNRATGIPARFSGSGSGTDFTLTISSLEPEDFAVYYCQQWLPTTPATFGQGTKVEIKR
notes: also called IgGκκ; mono κ
B1: in test [1], the binding result is “no binding”.

B2: monospecific anti-INFγ IgGλ antibody (antibody, V domains shown)
VH: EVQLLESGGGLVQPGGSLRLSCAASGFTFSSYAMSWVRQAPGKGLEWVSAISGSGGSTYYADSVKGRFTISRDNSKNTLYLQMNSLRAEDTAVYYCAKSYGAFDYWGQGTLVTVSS
VL: NFMLTQPHSVSESPGKTVTISCTRSSGSIASNYVQWYQQRPGSSPTTVIYEDNQRPSGVPDRFSGSIDSSSNSASLTISGLKTEDEADYYCQSQSWDGNHIVFGGGTKLTVLG
notes: also called IgGλλ; mono λ
As to B2, in test [2], the binding result is listed as “no binding”. In test [3], this molecule came in with a Kd of 0.196 nM, a koff of 0.000119 s⁻¹ and a kon of 608000 M⁻¹ s⁻¹.

B3: anti-IL6RC/anti-INFγ bispecific IgGκλ antibody (bispecific antibody)
heavy: not shown
light 1: not shown
light 2: NFMLTQPHSVSESPGKTVTISCTRSSGSIASNYVQWYQQRPGSSPTTVIYEDNQRPSGVPDRFSGSIDSSSNSASLTISGLKTEDEADYYCQSQSWDGNHIVFGGGTKLTVLGQPKAAPSVTLFPPSSEELQANKATLVCLISDFYPGAVTVAWKADSSPVKAGVETTTPSKQSNNKYAASSYLSLTPEQWKSHRSYSCQVTHEGSTVEKTVAPTECS
notes: also called κλ-body; κλ body
In test [3], B3 had a Kd of 0.184 nM, a koff of 0.000169 s⁻¹ and an association rate constant (kon) of 919000 M⁻¹ s⁻¹.

The values above are taken from patent US20140179547A1 (NOVIMMUNE S A, published 2014).
